# Experimental data reported in US20180092961.
# Tests used:
# [1] = test system: murine histone H2A released from activated RAW264.7 macrophages
# [2] = target: murine histone H4 released from activated RAW264.7 macrophages (UniProt P62806)
# murine histone H3 = murine histone H3 (UniProt P68433)
# [3] = target: calf thymus histone H4 (Roche) (UniProt P62803)
# [4] = target: calf thymus histone H3 (Roche) (UniProt P68432)
substance,measurement,setting,value
human recombinant activated protein C (Xigris),"new protein bands in conditioned medium in the presence of APC, MS/MS after tryptic digestion",[1],"three peptide sequences ... in this protein band that matchs the murine histone H2A protein sequence (amino acids 21-29, 82-88 and 100-118)"
same,"cleavage, Western blot of conditioned medium",[2],histone H4 was released into the conditioned medium and was cleaved by APC
same,"new protein bands in conditioned medium in the presence of APC, Edman sequencing",[2],N-terminal sequence of the 10 kD band protein which matches the murine histone H4 internal sequence (Val21-Ile34)
same,"new protein bands in conditioned medium in the presence of APC, Edman sequencing",murine histone H3,The N-terminal sequence of the 13 kD band protein was KSAPATGGV (SEQ ID NO:15) which matches the murine histone H3 internal sequence (Lys27-Lys36)
same,"cleavage in a purified system, SDS-PAGE",[3],APC cleaved histone H3 and H4 in a dose dependent fashion
same,"cleavage, SDS-PAGE",[3],Purified histone H4 was also cleaved by APC and a cluster of 4-7 KD fragments could be found on SDS-PAGE
same,"cleavage in a purified system, SDS-PAGE",[4],APC cleaved histone H3 and H4 in a dose dependent fashion
